Data: publication PMC5966361, “Ligand binding and conformational changes of SUR1 subunit in pancreatic ATP-sensitive potassium channels” (Protein & Cell, 2018)

B1: Kir6.2 (inward-rectifying potassium channel 6.2) subunit, as part of the SUR1-Kir6.2 fusion construct (natural protein, Mus musculus)
chain: MLSRKGIIPEEYVLTRLAEDPAEPRYRTRERRARFVSKKGNCNVAHKNIREQGRFLQDVFTTLVDLKWPHTLLIFTMSFLCSWLLFAMVWWLIAFAHGDLAPGEGTNVPCVTSIHSFSSAFLFSIEVQVTIGFGGRMVTEECPLAILILIVQNIVGLMINAIMLGCIFMKTAQAHRRAETLIFSKHAVITLRHGRLCFMLRVGDLRKSMIISATIHMQVVRKTTSPEGEVVPLHQVDIPMENGVGGNGIFLVAPLIIYHVIDSNSPLYDLAPSDLHHHQDLEIIVILEGVVETTGITTQARTSYLADEILWGQRFVPIVAEEDGRYSVDYSKFGNTIKVPTPLCTARQLDEDRSLLDALTLASSRGPLRKRSVAVAKAKPKFSISPDSLS
notes: Kir6.2 from Mus musculus (Woo et al., 2013); In the assay it stood as the C-terminal part of the fusion chain of m1; its N-terminus is joined through the 39-residue linker to the C-terminus of SUR1, so it has no free native N-terminus; The linker and the Kir6.2 N-terminus are disordered in the maps; also called mmKir6.2; source: FreeStyle 293-F cells, BacMam system, purified as part of the fusion …

Tests used:
[1] = target: SUR1-Kir6.2 fusion construct with a 39-residue linker (Mesocricetus auratus | Mus musculus); experiment: SEC; screening of fusion constructs: cleared lysate of transfected FreeStyle 293-F cells solubilised in 20 mmol/L HEPES pH 8.0, 120 mmol/L KCl, 1% digitonin, loaded onto a Superose 6 increase column
[2] = target: the molecule itself; experiment: cryo-EM structure; Mg-ADP state: purified fusion channel in 20 mmol/L HEPES pH 8.0, 120 mmol/L KCl, 0.1% digitonin, with 2.5 mmol/L MgCl2, 1 mmol/L ADP, 400 μmol/L 08:0 PI(4,5)P2, 500 μmol/L NN414 and 1 mmol/L Na3VO4; C4 symmetry

Row | Molecule | stoichiometry N [1] | stoichiometry N [2]
1 | SUR1-Kir6.2 fusion construct with a 39-residue linker (complex) | 4 | –
2 | B1 | – | 4
